# From patent US20170327571A1 (BEIJING BETTERMAB BIOTECHNOLOGY, published 2017)
# T1: huIL17-his (human IL17 with C-terminal His-tag) (human (homo sapiens), UniProt Q16552 24-155)
# T1 sequence: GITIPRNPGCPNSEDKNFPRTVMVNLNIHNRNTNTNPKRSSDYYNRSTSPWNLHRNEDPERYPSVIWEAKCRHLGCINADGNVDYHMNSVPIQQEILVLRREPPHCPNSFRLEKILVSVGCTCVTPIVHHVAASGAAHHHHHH
# T2: mouse (Mus musculus) IL17 (moIL17) (mouse (Mus musculus), UniProt Q62386 26-158)
# T2 construct: also called mIL17; mouse IL17
# T2 sequence: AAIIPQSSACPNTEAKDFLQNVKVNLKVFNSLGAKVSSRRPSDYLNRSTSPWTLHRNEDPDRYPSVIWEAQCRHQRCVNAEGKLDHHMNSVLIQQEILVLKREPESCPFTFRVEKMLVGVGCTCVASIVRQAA
# T3: Macaca mulatta IL17 (mmIL17) (Macaca mulatta, UniProt Q16552 24-155 (human entry), limits assumed)
# T3 chain: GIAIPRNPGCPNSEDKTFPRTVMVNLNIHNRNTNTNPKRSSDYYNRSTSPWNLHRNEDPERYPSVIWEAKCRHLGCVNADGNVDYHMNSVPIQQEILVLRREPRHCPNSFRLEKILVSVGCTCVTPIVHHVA
# T4: Macaca fascicularis IL17 (mfIL17) (Macaca fascicularis, UniProt Q16552 24-155 (human entry), limits assumed)
# T4 chain: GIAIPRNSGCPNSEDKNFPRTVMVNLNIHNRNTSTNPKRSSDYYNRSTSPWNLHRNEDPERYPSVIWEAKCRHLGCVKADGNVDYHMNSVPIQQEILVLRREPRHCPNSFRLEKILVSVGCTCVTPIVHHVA
# Tests used:
# [1] = molecular target: T1, huIL17-his (human IL17 with C-terminal …); assay: cell-based or functional assay
# [2] = molecular target: T2, mouse (Mus musculus) IL17 (moIL17); assay: ELISA, coated IL17 1 ug/ml, HRP-anti-human IgG
# Description: (§1) Four kinds of prepared IL17 (huIL17, mIL17, mmIL17, and mfIL17) were used to coat 96-well ELISA plates overnight at 4° C. (1 μg/ml, 100 μl/well). A blocking solution (2% milk powder-PBST) was added, and the plates were incubated at 37° C. for 1 h. […] Then, the plates were washed four times with PBST. Then, HRP-anti-human IgG (a secondary antibody) was added, and allowed to incubate at 37° C. for 1 h. Then, the plates were washed four times with PBST. An OPD developing solution was added to develop for 5-10 min. Then, 1M H₂SO₄ was added to terminate the development.
# [3] = molecular target: T3, Macaca mulatta IL17 (mmIL17); assay: ELISA, coated IL17 1 ug/ml, HRP-anti-human IgG
# Description: as §1
# [4] = molecular target: T4, Macaca fascicularis IL17 (mfIL17); assay: ELISA, coated IL17 1 ug/ml, HRP-anti-human IgG
# Description: as §1
IC50 of inhibiting IL17-induced release of IL6 by HDFa cells (2 nM IL17-His) [1] [nM],binding result [2],binding result [3],binding result [4],Binder
0.12,no binding,binds,binds,"anti-IL17 monoclonal antibody 9GA3 (antibody, V domains shown, Recombinant intact antibody) VH: EVQLVESGGGLVQPGGSLRLSCAASGITMDDYWMNWVRQAPGKGLEWVAAINQDGNEKYYVGSVKGRFTISRDNAKNSLYLQMNSLRVEDTAVYYCVRDYYDLISDYYIHYWYFDLWGRGTLVTVSS VL: DIQMTQSPSSLSASVGDRVTITCRASQNVHNRLTWYQQKPGKAPKLLIYGASNLESGVPSRFSGSGSGTDFTLTISSLQPEDFATYYCQQYNGSPTTFGQGTKVEIK"
,no binding,,,"control antibody Secukinumab (antibody, V domains shown) VH: EVQLVESGGGLVQPGGSLRLSCAASGFTFSNYWMNWVRQAPGKGLEWVAAINQDGSEKYYVGSVKGRFTISRDNAKNSLYLQMNSLRVEDTAVYYCVRDYYDILTDYYIHYWYFDLWGRGTLVTVSS VL: not shown"
0.07,no binding,binds,binds,"anti-IL17 monoclonal antibody 9GC5 (antibody, V domains shown, Recombinant intact antibody) VH: EVQLVESGGGLVQPGGSLRLSCAASGMSMSDYWMNWVRQAPGKGLEWVAAINQDGDEKYYVGSVKGRFTISRDNAKNSLYLQMNSLRVEDTAVYYCVRDYYDLISDYYIHYWYFDLWGRGTLVTVSS VL: DIQMTQSPSSLSASVGDRVTITCRASQNVHNRLTWYQQKPGKAPKLLIYGASNLESGVPSRFSGSGSGTDFTLTISSLQPEDFATYYCQQYNGSPTTFGQGTKVEIK"
0.22,no binding,binds,binds,"anti-IL17 monoclonal antibody 9GC2 (antibody, V domains shown, Recombinant intact antibody) VH: EVQLVESGGGLVQPGGSLRLSCAASGFTIDNYWMNWVRQAPGKGLEWVAAINQDGNEKYYVGSVKGRFTISRDNAKNSLYLQMNSLRVEDTAVYYCVRDYYDVISDYYIHYWYFDLWGRGTLVTVSS VL: DIQMTQSPSSLSASVGDRVTITCRASQNVHNRLTWYQQKPGKAPKLLIYGASNLESGVPSRFSGSGSGTDFTLTISSLQPEDFATYYCQQYNGSPTTFGQGTKVEIK"
,no binding,binds,binds,"Ixekizumab (antibody, V domains shown) VH: QVQLVQSGAEVKKPGSSVKVSCKASGYSFTDYHIHWVRQAPGQGLEWMGVINPMYGTTDYNQRFKGRVTITADESTSTAYMELSSLRSEDTAVYYCARYDYFTGTGVYWGQGTLVTVSS VL: DIVMTQTPLSLSVTPGQPASISCRSSRSLVHSRGNTYLHWYLQKPGQSPQLLIYKVSNRFIGVPDRFSGSGSGTDFTLKISRVEAEDVGVYYCSQSTHLPFTFGQGTKLEIK"
